Data as given in PMC9482650, “Quantitative fragmentomics allow affinity mapping of interactomes” (Nature Communications, 2022).

Biological target: ARHGEF12, Q9NZN5-2
Experiment: holdup assay
Set-up: key: below the threshold = too weak to quantify, mostly under pKd 3.1 to 4
Conditions: plain residues with an end cap or a label only (N-terminal biotin on a linker: ado-ado)

ARHGEF12, Q9NZN5-2, sequence (Q9NZN5 other isoform, or with tags, fused parts or gaps): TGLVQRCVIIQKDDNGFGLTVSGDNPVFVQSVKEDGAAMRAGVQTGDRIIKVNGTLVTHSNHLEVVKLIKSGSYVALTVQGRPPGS

Row | Binder | pKd
1 | EVNETDDTKM [KCNJ1, P48048] | 3.75
2 | NLSIEKETKL [ASNSD1, Q9NWL6] | 4.43

Biological target: CASK, O14936
Experiment: holdup assay
Set-up: key: below the threshold = too weak to quantify, mostly under pKd 3.1 to 4
Conditions: plain residues with an end cap or a label only (N-terminal biotin on a linker: ado-ado)

CASK, O14936, sequence (O14936 487-570): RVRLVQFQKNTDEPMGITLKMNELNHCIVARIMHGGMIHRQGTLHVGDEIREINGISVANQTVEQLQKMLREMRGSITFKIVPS

Row | Binder | pKd
3 | EVNETDDTKM [KCNJ1, P48048] | below the threshold
4 | NLSIEKETKL [ASNSD1, Q9NWL6] | below the threshold

Biological target: T1, DFNB31_1, Q9P202
T1 sequence (Q9P202 135-233, limits assumed, looked up): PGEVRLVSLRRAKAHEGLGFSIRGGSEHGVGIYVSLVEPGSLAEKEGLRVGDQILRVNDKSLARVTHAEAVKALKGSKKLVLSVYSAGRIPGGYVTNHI
Experiment: holdup assay
Set-up: key: below the threshold = too weak to quantify, mostly under pKd 3.1 to 4
Conditions: plain residues with an end cap or a label only (N-terminal biotin on a linker: ado-ado)

Row | Binder | pKd
5 | EVNETDDTKM [KCNJ1, P48048] | 3.69
6 | NLSIEKETKL [ASNSD1, Q9NWL6] | 4.41

Biological target: T2, DLG3_3, Q92796
T2 sequence (Q92796 374-475, limits assumed, looked up): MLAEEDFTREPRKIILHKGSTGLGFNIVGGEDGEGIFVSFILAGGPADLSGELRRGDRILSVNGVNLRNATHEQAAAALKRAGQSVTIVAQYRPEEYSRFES
Experiment: holdup assay
Set-up: key: below the threshold = too weak to quantify, mostly under pKd 3.1 to 4
Conditions: plain residues with an end cap or a label only (N-terminal biotin on a linker: ado-ado)

Row | Binder | pKd
7 | EVNETDDTKM [KCNJ1, P48048] | below the threshold
8 | NLSIEKETKL [ASNSD1, Q9NWL6] | below the threshold

Biological target: FRMPD4, Q14CM0
Experiment: holdup assay
Set-up: key: below the threshold = too weak to quantify, mostly under pKd 3.1 to 4
Conditions: plain residues with an end cap or a label only (N-terminal biotin on a linker: ado-ado)

FRMPD4, Q14CM0, sequence (Q14CM0 67-160): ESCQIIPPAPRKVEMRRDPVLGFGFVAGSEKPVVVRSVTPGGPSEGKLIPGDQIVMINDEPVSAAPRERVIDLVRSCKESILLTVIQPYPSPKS

Row | Binder | pKd
9 | EVNETDDTKM [KCNJ1, P48048] | 3.75
10 | NLSIEKETKL [ASNSD1, Q9NWL6] | 4.28

Biological target: GRASP, Q7Z6J2
Experiment: holdup assay
Set-up: key: below the threshold = too weak to quantify, mostly under pKd 3.1 to 4
Conditions: plain residues with an end cap or a label only (N-terminal biotin on a linker: ado-ado)

GRASP, Q7Z6J2, sequence (Q7Z6J2 96-193): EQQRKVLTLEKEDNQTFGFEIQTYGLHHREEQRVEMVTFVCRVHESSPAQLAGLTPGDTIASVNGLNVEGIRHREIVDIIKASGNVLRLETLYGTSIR

Row | Binder | pKd
11 | EVNETDDTKM [KCNJ1, P48048] | 3.77
12 | NLSIEKETKL [ASNSD1, Q9NWL6] | below the threshold

Biological target: GRID2IP_2, A4D2P6
Experiment: holdup assay
Set-up: key: below the threshold = too weak to quantify, mostly under pKd 3.1 to 4
Conditions: plain residues with an end cap or a label only (N-terminal biotin on a linker: ado-ado)

GRID2IP_2, A4D2P6, sequence (A4D2P6 272-370): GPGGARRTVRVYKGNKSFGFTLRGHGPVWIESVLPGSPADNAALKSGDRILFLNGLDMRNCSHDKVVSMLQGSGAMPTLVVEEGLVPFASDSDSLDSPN

Row | Binder | pKd
13 | EVNETDDTKM [KCNJ1, P48048] | below the threshold
14 | NLSIEKETKL [ASNSD1, Q9NWL6] | 4.26

Biological target: T3, GRIP1_4, Q9Y3R0
T3 sequence (Q9Y3R0 467-571, limits assumed, looked up): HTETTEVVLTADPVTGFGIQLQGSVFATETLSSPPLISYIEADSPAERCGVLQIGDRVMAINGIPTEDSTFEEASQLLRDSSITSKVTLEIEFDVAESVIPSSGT
Experiment: holdup assay
Set-up: key: below the threshold = too weak to quantify, mostly under pKd 3.1 to 4
Conditions: plain residues with an end cap or a label only (N-terminal biotin on a linker: ado-ado)

Row | Binder | pKd
15 | EVNETDDTKM [KCNJ1, P48048] | below the threshold
16 | NLSIEKETKL [ASNSD1, Q9NWL6] | below the threshold

Biological target: IL16_1, Q14005
Experiment: holdup assay
Set-up: key: below the threshold = too weak to quantify, mostly under pKd 3.1 to 4
Conditions: plain residues with an end cap or a label only (N-terminal biotin on a linker: ado-ado)

IL16_1, Q14005, sequence (Q14005 210-306): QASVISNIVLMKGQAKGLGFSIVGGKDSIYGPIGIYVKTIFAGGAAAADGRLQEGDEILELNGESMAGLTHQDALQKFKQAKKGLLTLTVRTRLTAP

Row | Binder | pKd
17 | EVNETDDTKM [KCNJ1, P48048] | below the threshold
18 | NLSIEKETKL [ASNSD1, Q9NWL6] | below the threshold

Biological target: Inadl_9, Q8NI35
Experiment: holdup assay
Set-up: key: below the threshold = too weak to quantify, mostly under pKd 3.1 to 4
Conditions: plain residues with an end cap or a label only (N-terminal biotin on a linker: ado-ado)

Inadl_9, Q8NI35, sequence (Q8NI35 1530-1615): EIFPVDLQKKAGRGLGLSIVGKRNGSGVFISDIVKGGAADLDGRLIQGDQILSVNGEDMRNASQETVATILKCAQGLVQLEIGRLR

Row | Binder | pKd
19 | EVNETDDTKM [KCNJ1, P48048] | below the threshold
20 | NLSIEKETKL [ASNSD1, Q9NWL6] | below the threshold

Biological target: LDB3, O75112
Experiment: holdup assay
Set-up: key: below the threshold = too weak to quantify, mostly under pKd 3.1 to 4
Conditions: plain residues with an end cap or a label only (N-terminal biotin on a linker: ado-ado)

LDB3, O75112, sequence (O75112 1-94): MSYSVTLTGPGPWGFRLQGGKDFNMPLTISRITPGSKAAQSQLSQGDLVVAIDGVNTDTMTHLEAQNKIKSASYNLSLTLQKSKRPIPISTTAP

Row | Binder | pKd
21 | EVNETDDTKM [KCNJ1, P48048] | below the threshold
22 | NLSIEKETKL [ASNSD1, Q9NWL6] | below the threshold

Biological target: LNX1_1, Q8TBB1
Experiment: holdup assay
Set-up: key: below the threshold = too weak to quantify, mostly under pKd 3.1 to 4
Conditions: plain residues with an end cap or a label only (N-terminal biotin on a linker: ado-ado)

LNX1_1, Q8TBB1, sequence (Q8TBB1 261-371): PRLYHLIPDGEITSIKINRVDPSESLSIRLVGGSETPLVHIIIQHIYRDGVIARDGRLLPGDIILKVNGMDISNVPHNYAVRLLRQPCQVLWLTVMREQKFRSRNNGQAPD

Row | Binder | pKd
23 | EVNETDDTKM [KCNJ1, P48048] | 3.92
24 | NLSIEKETKL [ASNSD1, Q9NWL6] | below the threshold

Biological target: T4, LNX2_2, Q8N448
T4 sequence (Q8N448 334-432, limits assumed, looked up): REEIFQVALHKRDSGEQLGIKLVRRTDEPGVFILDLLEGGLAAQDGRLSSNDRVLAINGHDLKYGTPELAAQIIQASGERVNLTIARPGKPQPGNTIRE
Experiment: holdup assay
Set-up: key: below the threshold = too weak to quantify, mostly under pKd 3.1 to 4
Conditions: plain residues with an end cap or a label only (N-terminal biotin on a linker: ado-ado)

Row | Binder | pKd
25 | EVNETDDTKM [KCNJ1, P48048] | below the threshold
26 | NLSIEKETKL [ASNSD1, Q9NWL6] | below the threshold

Biological target: MAGI1_1, Q96QZ7
Experiment: holdup assay
Set-up: key: below the threshold = too weak to quantify, mostly under pKd 3.1 to 4
Conditions: plain residues with an end cap or a label only (N-terminal biotin on a linker: ado-ado)

MAGI1_1, Q96QZ7, sequence (Q96QZ7 1-106): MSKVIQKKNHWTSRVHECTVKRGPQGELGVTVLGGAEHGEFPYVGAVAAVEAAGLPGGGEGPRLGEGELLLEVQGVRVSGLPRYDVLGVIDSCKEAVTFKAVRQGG

Row | Binder | pKd
27 | EVNETDDTKM [KCNJ1, P48048] | below the threshold
28 | NLSIEKETKL [ASNSD1, Q9NWL6] | below the threshold

Biological target: MAGI2_6, Q86UL8
Experiment: holdup assay
Set-up: key: below the threshold = too weak to quantify, mostly under pKd 3.1 to 4
Conditions: plain residues with an end cap or a label only (N-terminal biotin on a linker: ado-ado)

MAGI2_6, Q86UL8, sequence (Q86UL8 1141-1229): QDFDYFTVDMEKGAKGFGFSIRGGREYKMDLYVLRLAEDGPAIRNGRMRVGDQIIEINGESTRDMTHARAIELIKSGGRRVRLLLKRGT

Row | Binder | pKd
29 | EVNETDDTKM [KCNJ1, P48048] | 3.56
30 | NLSIEKETKL [ASNSD1, Q9NWL6] | 3.88

Biological target: T5, MPP2, Q14168
T5 sequence (Q14168 180-250, limits assumed, looked up): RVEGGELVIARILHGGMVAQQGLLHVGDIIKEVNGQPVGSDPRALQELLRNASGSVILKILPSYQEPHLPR
Experiment: holdup assay
Set-up: key: below the threshold = too weak to quantify, mostly under pKd 3.1 to 4
Conditions: plain residues with an end cap or a label only (N-terminal biotin on a linker: ado-ado)

Row | Binder | pKd
31 | EVNETDDTKM [KCNJ1, P48048] | below the threshold
32 | NLSIEKETKL [ASNSD1, Q9NWL6] | below the threshold

Biological target: NHERF2_2, Q15599
Experiment: holdup assay
Set-up: key: below the threshold = too weak to quantify, mostly under pKd 3.1 to 4
Conditions: plain residues with an end cap or a label only (N-terminal biotin on a linker: ado-ado)

NHERF2_2, Q15599, sequence (Q15599 142-238): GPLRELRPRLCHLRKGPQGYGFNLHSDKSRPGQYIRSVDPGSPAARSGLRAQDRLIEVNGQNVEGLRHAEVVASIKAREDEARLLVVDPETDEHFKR

Row | Binder | pKd
33 | EVNETDDTKM [KCNJ1, P48048] | 4.84
34 | NLSIEKETKL [ASNSD1, Q9NWL6] | 4.76

Biological target: NHERF4_1, Q86UT5-2
Experiment: holdup assay
Set-up: key: below the threshold = too weak to quantify, mostly under pKd 3.1 to 4
Conditions: plain residues with an end cap or a label only (N-terminal biotin on a linker: ado-ado)

NHERF4_1, Q86UT5-2, sequence (Q86UT5 other isoform, or with tags, fused parts or gaps): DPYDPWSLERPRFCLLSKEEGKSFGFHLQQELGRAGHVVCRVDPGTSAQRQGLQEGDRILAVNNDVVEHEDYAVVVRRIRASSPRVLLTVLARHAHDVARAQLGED

Row | Binder | pKd
35 | EVNETDDTKM [KCNJ1, P48048] | below the threshold
36 | NLSIEKETKL [ASNSD1, Q9NWL6] | 3.87

Biological target: NHERF4_2, Q86UT5
Experiment: holdup assay
Set-up: key: below the threshold = too weak to quantify, mostly under pKd 3.1 to 4
Conditions: plain residues with an end cap or a label only (N-terminal biotin on a linker: ado-ado)

NHERF4_2, Q86UT5, sequence (Q86UT5 220-308): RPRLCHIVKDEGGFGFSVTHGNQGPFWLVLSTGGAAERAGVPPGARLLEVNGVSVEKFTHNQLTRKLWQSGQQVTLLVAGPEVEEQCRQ

Row | Binder | pKd
37 | EVNETDDTKM [KCNJ1, P48048] | below the threshold
38 | NLSIEKETKL [ASNSD1, Q9NWL6] | below the threshold

Biological target: T6, PARD3B_1, Q8TEW8
T6 sequence (Q8TEW8 196-299, limits assumed, looked up): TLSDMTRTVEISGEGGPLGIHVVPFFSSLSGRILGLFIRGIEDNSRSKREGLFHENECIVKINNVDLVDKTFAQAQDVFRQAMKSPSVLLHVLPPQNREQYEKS
Experiment: holdup assay
Set-up: key: below the threshold = too weak to quantify, mostly under pKd 3.1 to 4
Conditions: plain residues with an end cap or a label only (N-terminal biotin on a linker: ado-ado)

Row | Binder | pKd
39 | EVNETDDTKM [KCNJ1, P48048] | below the threshold
40 | NLSIEKETKL [ASNSD1, Q9NWL6] | 3.89

Biological target: T7, PDZD7_3, Q9H5P4
T7 sequence (Q9H5P4 857-944, limits assumed, looked up): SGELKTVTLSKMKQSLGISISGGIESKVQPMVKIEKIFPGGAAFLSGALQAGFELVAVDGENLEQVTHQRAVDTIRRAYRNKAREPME
Experiment: holdup assay
Set-up: key: below the threshold = too weak to quantify, mostly under pKd 3.1 to 4
Conditions: plain residues with an end cap or a label only (N-terminal biotin on a linker: ado-ado)

Row | Binder | pKd
41 | EVNETDDTKM [KCNJ1, P48048] | 4.38
42 | NLSIEKETKL [ASNSD1, Q9NWL6] | 4.68

Biological target: T8, PTPN13_1, Q12923
T8 sequence (Q12923 1088-1188, limits assumed, looked up): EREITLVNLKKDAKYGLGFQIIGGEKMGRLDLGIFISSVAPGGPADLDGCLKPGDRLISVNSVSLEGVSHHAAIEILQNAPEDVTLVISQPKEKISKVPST
Experiment: holdup assay
Set-up: key: below the threshold = too weak to quantify, mostly under pKd 3.1 to 4
Conditions: plain residues with an end cap or a label only (N-terminal biotin on a linker: ado-ado)

Row | Binder | pKd
43 | EVNETDDTKM [KCNJ1, P48048] | below the threshold
44 | NLSIEKETKL [ASNSD1, Q9NWL6] | below the threshold

Biological target: SCRIB_3, Q14160
Experiment: holdup assay
Set-up: key: below the threshold = too weak to quantify, mostly under pKd 3.1 to 4
Conditions: plain residues with an end cap or a label only (N-terminal biotin on a linker: ado-ado)

SCRIB_3, Q14160, sequence (Q14160 999-1103): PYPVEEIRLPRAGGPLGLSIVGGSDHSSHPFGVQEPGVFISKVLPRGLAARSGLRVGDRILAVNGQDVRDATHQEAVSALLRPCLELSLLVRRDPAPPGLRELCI

Row | Binder | pKd
45 | EVNETDDTKM [KCNJ1, P48048] | 3.67
46 | NLSIEKETKL [ASNSD1, Q9NWL6] | 4.97

Biological target: T9, SHANK1, Q9Y566
T9 sequence (Q9Y566 658-767, limits assumed, looked up): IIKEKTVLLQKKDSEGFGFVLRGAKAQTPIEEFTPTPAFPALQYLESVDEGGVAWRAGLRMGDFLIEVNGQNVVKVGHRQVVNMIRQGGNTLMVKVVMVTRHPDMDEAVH
Experiment: holdup assay
Set-up: key: below the threshold = too weak to quantify, mostly under pKd 3.1 to 4
Conditions: plain residues with an end cap or a label only (N-terminal biotin on a linker: ado-ado)

Row | Binder | pKd
47 | EVNETDDTKM [KCNJ1, P48048] | 3.73
48 | NLSIEKETKL [ASNSD1, Q9NWL6] | 4.52

Biological target: T10, SIPA1L2, Q9P2F8
T10 sequence (Q9P2F8 945-1036, limits assumed, looked up): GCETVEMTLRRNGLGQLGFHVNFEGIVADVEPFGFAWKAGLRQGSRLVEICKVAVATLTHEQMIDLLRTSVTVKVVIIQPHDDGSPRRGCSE
Experiment: holdup assay
Set-up: key: below the threshold = too weak to quantify, mostly under pKd 3.1 to 4
Conditions: plain residues with an end cap or a label only (N-terminal biotin on a linker: ado-ado)

Row | Binder | pKd
49 | EVNETDDTKM [KCNJ1, P48048] | below the threshold
50 | NLSIEKETKL [ASNSD1, Q9NWL6] | below the threshold

Biological target: T11, SNTG2, Q9NY99
T11 sequence (Q9NY99 68-166, limits assumed, looked up): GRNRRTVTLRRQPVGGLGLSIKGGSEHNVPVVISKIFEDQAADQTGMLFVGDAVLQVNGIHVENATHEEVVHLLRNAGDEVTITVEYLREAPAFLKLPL
Experiment: holdup assay
Set-up: key: below the threshold = too weak to quantify, mostly under pKd 3.1 to 4
Conditions: plain residues with an end cap or a label only (N-terminal biotin on a linker: ado-ado)

Row | Binder | pKd
51 | EVNETDDTKM [KCNJ1, P48048] | below the threshold
52 | NLSIEKETKL [ASNSD1, Q9NWL6] | 4.95
